In data set [1] the target is T1, PceA2B2 complex (menaquinol:organohalide oxidoreductase, MOOR; DhPceA / DhPceB) (Desulfitobacterium hafniense, UniProt Q8GJ30+Q8GJ31).
T1 construct: gene pceA; native complex from D. hafniense membranes, DDM-solubilised, SEC into LMNG; no tag; PceA C-terminal domain S486-Q551 present; PceA exported via Tat
T1 sequence (Q8GJ31 40-551): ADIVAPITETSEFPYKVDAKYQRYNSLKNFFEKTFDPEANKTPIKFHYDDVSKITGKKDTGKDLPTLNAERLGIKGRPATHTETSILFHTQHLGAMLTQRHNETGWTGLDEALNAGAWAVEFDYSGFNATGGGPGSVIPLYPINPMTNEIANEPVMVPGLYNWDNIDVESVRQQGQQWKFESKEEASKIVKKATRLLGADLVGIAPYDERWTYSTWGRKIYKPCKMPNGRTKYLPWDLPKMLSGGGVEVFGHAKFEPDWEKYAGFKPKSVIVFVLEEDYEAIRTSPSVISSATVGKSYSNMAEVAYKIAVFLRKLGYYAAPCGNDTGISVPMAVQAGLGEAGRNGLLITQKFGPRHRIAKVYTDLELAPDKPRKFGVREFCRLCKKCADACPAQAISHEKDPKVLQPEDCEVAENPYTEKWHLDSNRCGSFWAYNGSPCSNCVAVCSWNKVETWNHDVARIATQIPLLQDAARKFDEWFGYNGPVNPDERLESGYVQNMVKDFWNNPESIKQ
T1 sequence (Q8GJ30 1-105): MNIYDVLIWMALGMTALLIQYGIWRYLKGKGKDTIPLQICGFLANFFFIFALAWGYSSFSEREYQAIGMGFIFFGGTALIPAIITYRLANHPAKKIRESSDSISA
As to the kind of experiment: cryo-EM structure, […] A. The class given is binding. The settings on record: PceA active site / channel, 5.3 A from cobalt; cells grown with PCE.

Data set [2] deals with the molecule itself. As to the kind of experiment: native gel or EMSA; Clear-Native PAGE (5-15% gradient, Bis-Tris) of DDM-solubilised membrane extract and soluble fraction, anaerobic; Coomassie and in-gel PCE dehalogenase activity staining; the ~180 kDa band cut out, run on SDS-PAGE as second dimension and analysed by LC-MS/MS. For orientation: In EMSA bound probe runs differently from free probe, usually more slowly.

Data set [3] deals with the molecule itself. As to the kind of experiment: cryo-EM structure; native PceA2B2 complex purified from the membrane extract by SEC in 25 mM HEPES-NaOH pH 7.5, 150 mM NaCl, 0.005% LMNG; single-particle analysis, C2 symmetry, 2.83 Å. In general terms: SEC sorts molecules by how far they enter the pores of the column.

For the molecule `Cl/C=C\Cl` [cis-1,2-dichloroethene], the “cryo-EM structure, 2.83 A” value in data set [1] is “density for a dichloroethene (DCE) molecule, the final product of PCE dechlorination”.

B1: PceA, catalytic subunit of the tetrachloroethene (PCE) reductive dehalogenase from Desulfitobacterium hafniense strain TCE1 (enzyme, UniProt Q8GJ31 40-551, looked up)
chain: ADIVAPITETSEFPYKVDAKYQRYNSLKNFFEKTFDPEANKTPIKFHYDDVSKITGKKDTGKDLPTLNAERLGIKGRPATHTETSILFHTQHLGAMLTQRHNETGWTGLDEALNAGAWAVEFDYSGFNATGGGPGSVIPLYPINPMTNEIANEPVMVPGLYNWDNIDVESVRQQGQQWKFESKEEASKIVKKATRLLGADLVGIAPYDERWTYSTWGRKIYKPCKMPNGRTKYLPWDLPKMLSGGGVEVFGHAKFEPDWEKYAGFKPKSVIVFVLEEDYEAIRTSPSVISSATVGKSYSNMAEVAYKIAVFLRKLGYYAAPCGNDTGISVPMAVQAGLGEAGRNGLLITQKFGPRHRIAKVYTDLELAPDKPRKFGVREFCRLCKKCADACPAQAISHEKDPKVLQPEDCEVAENPYTEKWHLDSNRCGSFWAYNGSPCSNCVAVCSWNKVETWNHDVARIATQIPLLQDAARKFDEWFGYNGPVNPDERLESGYVQNMVKDFWNNPESIKQ
notes: PceA, catalytic subunit of the PCE reductive dehalogenase, Desulfitobacterium hafniense strain TCE1 (DSM 12704), locus tag DeshaDRAFT_2412; C-terminal domain printed as S486-Q551; Native protein with a cobalamin and two [4Fe-4S] clusters; a menaquinone lies at the interface with PceB; the modelled residues are in PDB 8Q4H; also called DhPceA; RdhA; source: endogenous, D. hafniense strain TCE1: …
As to B1, the “stoichiometry N” value in data set [2] amounted to 2.

B2: PceB, integral membrane anchor subunit of the PCE reductive dehalogenase from Desulfitobacterium hafniense strain TCE1 (natural protein, UniProt Q8GJ30 1-105, looked up)
chain: MNIYDVLIWMALGMTALLIQYGIWRYLKGKGKDTIPLQICGFLANFFFIFALAWGYSSFSEREYQAIGMGFIFFGGTALIPAIITYRLANHPAKKIRESSDSISA
notes: PceB, small integral membrane subunit with three transmembrane helices, encoded in the pceABCT operon of Desulfitobacterium hafniense strain TCE1; also called DhPceB; RdhB; source: endogenous, D. hafniense strain TCE1: DDM-solubilised membrane extract; purified as PceA2B2 complex by size-exclusion chromatography (Superose 6 Increase) for cryo-EM
Turning to B2, the binding result in data set [3] is recorded as “binds”.

Broadly, the stoichiometry N is a count of units in the complex or per binding partner.
